According to IntAct's records for PubMed 16868027:

B1: Disintegrin and metalloproteinase domain-containing protein 22 (Homo sapiens), Q9P0K1-1 (parent)
chain: MQAAVAVSVPFLLLCVLGTCPPARCGQAGDASLMELEKRKENRFVERQSIVPLRLIYRSGGEDESRHDALDTRVRGDLGGPQLTHVDQASFQVDAFGTSFILDVVLNHDLLSSEYIERHIEHGGKTVEVKGGEHCYYQGHIRGNPDSFVALSTCHGLHGMFYDGNHTYLIEPEENDTTQEDFHFHSVYKSRLFEFSLDDLPSEFQQVNITPSKFILKPRPKRSKRQLRRYPRNVEEETKYIELMIVNDHLMFKKHRLSVVHTNTYAKSVVNMADLIYKDQLKTRIVLVAMETWATDNKFAISENPLITLREFMKYRRDFIKEKSDAVHLFSGSQFESSRSGAAYIGGICSLLKGGGVNEFGKTDLMAVTLAQSLAHNIGIISDKRKLASGECKCEDTWSGCIMGDTGYYLPKKFTQCNIEEYHDFLNSGGGACLFNKPSKLLDPPECGNGFIETGEECDCGTPAECVLEGAECCKKCTLTQDSQCSDGLCCKKCKFQPMGTVCREAVNDCDIRETCSGNSSQCAPNIHKMDGYSCDGVQGICFGGRCKTRDRQCKYIWGQKVTASDKYCYEKLNIEGTEKGNCGKDKDTWIQCNKRDVLCGYLLCTNIGNIPRLGELDGEITSTLVVQQGRTLNCSGGHVKLEEDVDLGYVEDGTPCGPQMMCLEHRCLPVASFNFSTCLSSKEGTICSGNGVCSNELKCVCNRHWIGSDCNTYFPHNDDAKTGITLSGNGVAGTNIIIGIIAGTILVLALILGITAWGYKNYREQRQLPQGDYVKKPGDGDSFYSDIPPGVSTNSASSSKKRSNGLSHSWSERIPDTKHISDICENGRPRSNSWQGNLGGNKKKIRGKRFRPRSNSTETLSPAKSPSSSTGSIASSRKYPYPMPPLPDEDKKVNRQSARLWETSI
partner: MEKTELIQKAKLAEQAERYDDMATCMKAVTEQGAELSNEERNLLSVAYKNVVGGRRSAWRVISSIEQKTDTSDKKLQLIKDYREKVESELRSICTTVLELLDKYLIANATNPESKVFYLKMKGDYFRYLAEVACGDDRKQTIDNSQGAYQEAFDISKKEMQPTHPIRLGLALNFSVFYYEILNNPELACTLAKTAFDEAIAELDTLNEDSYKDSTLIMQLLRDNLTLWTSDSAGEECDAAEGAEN
B2: Disintegrin and metalloproteinase domain-containing protein 22 (Homo sapiens), Q9P0K1-1 (parent)
chain: B1 chain
B3: Disintegrin and metalloproteinase domain-containing protein 22 (Homo sapiens), Q9P0K1-3 (parent)
chain: MQAAVAVSVPFLLLCVLGTCPPARCGQAGDASLMELEKRKENRFVERQSIVPLRLIYRSGGEDESRHDALDTRVRGDLGGPQLTHVDQASFQVDAFGTSFILDVVLNHDLLSSEYIERHIEHGGKTVEVKGGEHCYYQGHIRGNPDSFVALSTCHGLHGMFYDGNHTYLIEPEENDTTQEDFHFHSVYKSRLFEFSLDDLPSEFQQVNITPSKFILKPRPKRSKRQLRRYPRNVEEETKYIELMIVNDHLMFKKHRLSVVHTNTYAKSVVNMADLIYKDQLKTRIVLVAMETWATDNKFAISENPLITLREFMKYRRDFIKEKSDAVHLFSGSQFESSRSGAAYIGGICSLLKGGGVNEFGKTDLMAVTLAQSLAHNIGIISDKRKLASGECKCEDTWSGCIMGDTGYYLPKKFTQCNIEEYHDFLNSGGGACLFNKPSKLLDPPECGNGFIETGEECDCGTPAECVLEGAECCKKCTLTQDSQCSDGLCCKKCKFQPMGTVCREAVNDCDIRETCSGNSSQCAPNIHKMDGYSCDGVQGICFGGRCKTRDRQCKYIWGQKVTASDKYCYEKLNIEGTEKGNCGKDKDTWIQCNKRDVLCGYLLCTNIGNIPRLGELDGEITSTLVVQQGRTLNCSGGHVKLEEDVDLGYVEDGTPCGPQMMCLEHRCLPVASFNFSTCLSSKEGTICSGNGVCSNELKCVCNRHWIGSDCNTYFPHNDDAKTGITLSGNGVAGTNIIIGIIAGTILVLALILGITAWGYKNYREQRQLPQGDYVKKPGDGDSFYSDIPPGVSTNSASSSKKRSNGLSHSWSERIPDTKHISDICENGRPRSNSWQGNLGGNKKKIRGKRFRPRSNSTE

Variants of: B1
Details: with 1433t_human YWHAQ

Question: Which “effect of a mutation on the interaction” value does the source give for R831Q;S832G;R854Q;S855A here?
Answer: disrupting interaction

Variants of: B2
Details: with 1433z_human YWHAZ

Question: Which “effect of a mutation on the interaction” value does the source give for R831Q;S832G;R854Q;S855A here?
Answer: disrupting interaction

Variants of: B2
Details: with 1433b_human YWHAB

Question: Which “effect of a mutation on the interaction” value does the source give for R831Q;S832G;R854Q;S855A here?
Answer: disrupting interaction

Variants of: B3
Details: with 1433b_human YWHAB

Question: With R831Q;S832G as the variant, how does the “effect of a mutation on the interaction” value read?
Answer: decreasing interaction

Question: How did the “effect of a mutation on the interaction” value turn out when R831Q;S832G;R854Q;S855A was run?
Answer: disrupting interaction

Question: With R854Q;S855A as the variant, how does the “effect of a mutation on the interaction” value read?
Answer: decreasing interaction

Variants of: B3
Details: with 1433z_human YWHAZ

Question: With R831Q;S832G as the variant, how does the “effect of a mutation on the interaction” value read?
Answer: decreasing interaction

Question: How did the “effect of a mutation on the interaction” value turn out when R831Q;S832G;R854Q;S855A was run?
Answer: disrupting interaction
